Assay [1] has as its target T1, human CD147 protein (adsorbed to ELISA plates) (human, UniProt P35613-2 22-205, limits assumed).
T1 construct: also called human CD147 polypeptide; Basigin
T1 sequence (looked up): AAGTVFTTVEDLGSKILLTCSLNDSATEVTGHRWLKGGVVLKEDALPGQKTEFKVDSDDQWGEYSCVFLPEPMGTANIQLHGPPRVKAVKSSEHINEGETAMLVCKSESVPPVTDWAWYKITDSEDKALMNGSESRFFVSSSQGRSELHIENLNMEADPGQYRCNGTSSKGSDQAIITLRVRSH
Description: ELISA, human CD147 protein adsorbed to plate, anti-mouse Fc-peroxidase detection; apparent KD. Here is the method:
(§1) The antibody of the present disclosure that was assayed in this exemplary study was hu 3A11 Lc1/Hc1 (VL of SEQ ID NO: 5 and VH of SEQ ID NO: 1). Mouse anti-human CD147 monoclonal antibody 3A11 (VL of SEQ ID NO: 8 and VH of SEQ ID NO: 4) was assayed as a reference. Using a standard ELISA protocol, human CD147 protein was absorbed to ELISA plates and subsequently incubated with the indicated concentration of antibody of the present disclosure. Bound humanized antibody of the present disclosure was detected with anti-human Fab-peroxidase secondary antibody and the mouse 3A11 monoclonal antibody was detected with anti-mouse Fc-peroxidase secondary antibody, and Ultra TMB detection (Thermo Fisher Scientific).
In general terms: In an ELISA, binding on a coated surface is turned into a signal by an enzyme label.

The target of assay [2] is T1, human CD147 protein (adsorbed to ELISA …). Description: ELISA, human CD147 protein adsorbed to plate, anti-human Fab-peroxidase detection; apparent KD. Here is the method: The antibodies of the present disclosure that were assayed in this exemplary study were hu 3A11 Lc1/hu 3A11 Hc1 (VL of SEQ ID NO: 5 and VH of SEQ ID NO: 1), hu 3A11 Lc2/hu 3A11 Hc2 (VL of SEQ ID NO: 6 and VH of SEQ ID NO: 2), hu 3A11 Lc4/hu 3A11 Hc2 (VL of SEQ ID NO: 8 and VH of SEQ ID NO: 2). Using a standard ELISA protocol, human CD147 protein was absorbed to ELISA plates and subsequently incubated with the indicated concentration of antibody of the present disclosure. Bound humanized antibody of the present disclosure was detected with anti-human Fab-peroxidase secondary antibody, and Ultra TMB detection (Thermo Fisher Scientific).

The target of assay [3] is T2, recombinant human CD147-Fc chimeric protein deglycosylated with Protein Deglycosylation Mix II (New England … (human, UniProt P35613-2 25-205, N- and simple O-linked carbohydrates removed enzymatically (NEB Protein Deglycosylation Mix II, about 16 hrs at 37 C))).
T2 construct: Same bought protein as m9 after deglycosylation (migrates at 52 and 48 kDa); also called CD147-Fc (deglyc-NEB); Fc part of the bought chimera not given
T2 sequence (looked up): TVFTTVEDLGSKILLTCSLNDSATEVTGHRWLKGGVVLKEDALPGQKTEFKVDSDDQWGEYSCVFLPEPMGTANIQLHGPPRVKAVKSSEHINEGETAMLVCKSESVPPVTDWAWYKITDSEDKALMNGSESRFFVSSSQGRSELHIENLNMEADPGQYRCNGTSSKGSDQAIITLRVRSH
Put plainly: ELISA, deglycosylated CD147-Fc adsorbed at 1 ug/mL, anti-human Fab-peroxidase detection; apparent KD. Here is the method:
(§2) In this example, recombinant human CD147-Fc chimeric protein (R&D Systems, cat. no. 927-EMN-050) was deglycosylated of N- and simple O-linked carbohydrates using the Protein Deglycosylation Mix II (˜16 hrs incubation at 37° C.; New England Biolabs, cat. no. P6044S) or the Enzymatic Protein Deglycosylation Kit (˜1.5 days+incubation at 37° C.; Sigma-Aldrich, cat. no. EDEGLY) in accordance with their respective protocols. […] Bovine fetuin, which includes both N- and O-linked carbohydrates, was used a control for the extent of deglycosylation.
(§3) After buffer exchange with PBS, the deglycosylated or glycosylated proteins were adsorbed onto ELISA plates at 1 μg/mL. […] Bound humanized antibody of the present disclosure was detected with anti-human Fab-peroxidase secondary antibody and the mouse 3A11 monoclonal antibody was detected with anti-mouse Fc-peroxidase secondary antibody, and Ultra TMB detection (Thermo Fisher Scientific).

Assay [4] has as its target T3, recombinant human CD147-Fc chimeric protein deglycosylated with Enzymatic Protein Deglycosylation Kit … (human, UniProt P35613-2 25-205, N- and simple O-linked carbohydrates removed enzymatically (Sigma-Aldrich EDEGLY kit, about 1.5 days at 37 C)).
T3 construct: Same bought protein as m9 after deglycosylation (migrates at 52 and 48 kDa); also called CD147-Fc (deglyc-Sigma); Fc part of the bought chimera not given
T3 sequence (looked up): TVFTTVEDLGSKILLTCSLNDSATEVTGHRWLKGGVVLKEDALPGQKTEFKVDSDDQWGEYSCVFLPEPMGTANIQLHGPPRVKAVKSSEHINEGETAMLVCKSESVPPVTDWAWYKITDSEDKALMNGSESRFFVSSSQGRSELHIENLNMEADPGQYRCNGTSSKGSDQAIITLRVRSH
The assay is described as above. Here is the method:
as §2, §3

In assay [5] the target is T1, human CD147 protein (adsorbed to ELISA …). Description: ELISA, human CD147 protein adsorbed to plate, anti-human Fab-peroxidase detection; apparent KD. Here is the method:
For the exemplary assay depicted in FIGS. 7A-7C, standard ELISA protocol was used, in which human CD147 protein was absorbed to ELISA plates and subsequently incubated with the indicated concentration of antibody of the present disclosure. Bound humanized activatable antibody of the present disclosure was detected with anti-human Fab-peroxidase secondary antibody and Ultra TMB detection (Thermo Fisher Scientific).
This is another data set of the same source.

The target of assay [6] is T4, cynomolgus monkey CD147 on the cynomolgus primary kidney epithelial cell line (cynomolgus monkey).
T4 construct: whole, on cells; also called cynomolgus CD147
Description: FACS on cynomolgus primary kidney epithelial cell line, Alexa Fluor 647 goat anti-human IgG detection. Here is the method:
In this study, the binding of the humanized anti-human CD147 antibody of the present disclosure to the indicated cell lines were performed using a standard FACS labelling method. Briefly, cells were labeled with the indicated antibodies of the present disclosure: anti-human CD147 antibody (humanized anti-human CD147 hu3A11 antibody; VH of SEQ ID NO: 1, VL of SEQ ID NO: 5) at the indicated concentrations and subsequently detected with an Alexa Fluor 647 labeled goat anti-human IgG secondary antibody.

Assay [7] deals with T1, human CD147 protein (adsorbed to ELISA …). Put plainly: ELISA, human CD147 protein adsorbed to plate, anti-human Fab-peroxidase detection; apparent KD. Here is the method: as §1
This is another data set of the same source.

Assay [8] shares this target. Described as above. Here is the method:
Using a standard ELISA protocol, human CD147 protein was absorbed to ELISA plates and subsequently incubated with the indicated concentration of antibody of the present disclosure. Bound humanized activatable antibody of the present disclosure was detected with anti-human Fab-peroxidase secondary antibody and Ultra TMB detection (Thermo Fisher Scientific).
The source holds these as a separate data set.

Assay [9] has as its target T5, recombinant human CD147-Fc chimeric protein (glycosylated) (human, UniProt P35613-2 25-205, glycosylated as supplied (migrates at about 62 kDa)).
T5 construct: Bought protein; also called CD147-Fc (glycosylated); R&D Systems cat. no; 927-EMN-050; Fc part of the bought chimera not given
T5 sequence (looked up): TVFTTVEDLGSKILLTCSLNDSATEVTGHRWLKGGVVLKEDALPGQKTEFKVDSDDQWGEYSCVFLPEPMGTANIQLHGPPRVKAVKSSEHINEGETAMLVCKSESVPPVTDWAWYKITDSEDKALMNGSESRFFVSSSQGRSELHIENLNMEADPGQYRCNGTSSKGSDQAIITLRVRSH
Put plainly: ELISA, CD147-Fc adsorbed at 1 ug/mL, anti-human Fab-peroxidase detection; apparent KD. Here is the method:
as §3

Values joined by “and” are separate entries in the source; they are usually repeats but may differ in a detail not shown here. Equal entries are not always repeated.

B1: mouse anti-human CD147 monoclonal antibody 3A11 (antibody, V domains shown)
VH: EVKLEESGGGLVQPGGSMKLSCVASGFTFSNYWMNWVRQSPEKGLEWVGEIRLKSYNYATHYVESVEGRFTISRDDSKSSVYLQMNNLRAEDTGIYYCTAAGTDYWGQGTTLTVSS
VL: SIVMTQIPKILLVSAGDRVTITCKASQSVRTDVAWYQQKPGQSPKLLIYYSSNRYTGVPDRFTGSGYGTDFTFTISTVQAEDLAVYFCQQDYSSPFTFGSGTKLEIK
notes: Mouse hybridoma antibody, detected with anti-mouse Fc secondary antibody; also called Mouse 3A11; mu 3A11
Consider B1, for which the Kd in assay [1] is 0.293 nM.

B2: humanized anti-human CD147 antibody hu 3A11 Lc4/hu 3A11 Hc2 (antibody, V domains shown)
VH: EVQLVESGGGLVQPGGSLRLSCAASGFTFSNYWMNWVRQAPGKGLEWVGEIRLKSYNYATHYAASVKGRFTISRDDSKNSLYLQMNSLKTEDTAVYYCARAGTDYWGQGTLVTVSS
VL: DIQMTQSPSSLSVSVGDRVTITCKASQSVRTDVAWYQQKPGKAPKLLIYYSSNRYTGVPSRFSGSGYGTDFTFTISSVQPEDFATYYCQQDYSSPFTFGQGTKLEIK
notes: also called hu 3A11 (hu Lc4/hu Hc2)
On to B2, for which, in assay [2], the Kd turned out to be 0.902 nM.

B3: humanized anti-human CD147 monoclonal antibody hu 3A11 Lc1/Hc1 (antibody, V domains shown)
VH: EVQLVESGGGLVQPGGSLRLSCAASGFTFSNYWMDWVRQAPGKGLEWVGEIRLKSYNYATHYAASVKGRFTISRDDSKNSVYLQMNSLKTEDTAVYYCTAAGTDYWGQGTLVTVSS
VL: DIQMTQSPSSLSASVGDRVTITCRASQSVRTDVGWYQQKPGKAPKLLIYYSSNRYTGVPSRFSGSGSGTDFTLTISSLQPEDFATYYCQQDYSSPYTFGQGTKLEIK
notes: Detected with anti-human Fab or anti-human IgG secondary antibodies; also called hu 3A11 (hu Lc1/hu Hc1); hu 3A11 (hu Hc1/Lc1)
In the case of B3, the Kd in assay [3] is 0.185 nM; in assay [4], 0.175 nM; in assay [5], 0.45 nM and 0.59 nM; in assay [2], 0.852 nM; in assay [6] it was 1.3 nM; in assay [7], 0.71 nM. Besides, the Kd worked out at 0.14 nM in assay [8] and 0.191 nM in assay [9].

(Values after US20180303952A1 (CYTOMX THERAPEUTICS, published 2018).)
